Earlier results, collected in paper PMC3432176.

Molecular target: preMADH (Paracoccus denitrificans) (UniProt P22619)
Assay: kinetics

Sequence of UniProt P22619 (P22619 58-188, chain 1 of 2): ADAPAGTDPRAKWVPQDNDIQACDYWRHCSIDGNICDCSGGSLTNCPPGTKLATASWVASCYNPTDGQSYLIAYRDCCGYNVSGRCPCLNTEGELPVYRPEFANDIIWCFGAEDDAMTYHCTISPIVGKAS
Sequence of UniProt P22619 (P29894 29-417, chain 2 of 2, further chain): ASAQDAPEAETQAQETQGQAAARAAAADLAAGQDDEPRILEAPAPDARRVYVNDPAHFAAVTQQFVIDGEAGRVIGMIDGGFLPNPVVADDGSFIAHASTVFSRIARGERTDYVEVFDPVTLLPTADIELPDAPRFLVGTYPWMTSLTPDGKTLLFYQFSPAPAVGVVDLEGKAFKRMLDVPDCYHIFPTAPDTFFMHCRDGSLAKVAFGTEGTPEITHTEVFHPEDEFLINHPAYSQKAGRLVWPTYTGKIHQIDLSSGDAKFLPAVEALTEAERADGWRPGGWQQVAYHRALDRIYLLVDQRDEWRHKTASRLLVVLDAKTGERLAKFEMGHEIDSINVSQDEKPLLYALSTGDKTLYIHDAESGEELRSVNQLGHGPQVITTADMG

MauG (from UniProt Q51658)
Kd: < 1500 nM
